Changes are numbered by the printed parent chain.
T1: murine mesothelin (recombinant) (murine, UniProt Q61468 298-600, limits assumed)
T1 construct: Covalently immobilized on the Biacore chip
T1 sequence (looked up): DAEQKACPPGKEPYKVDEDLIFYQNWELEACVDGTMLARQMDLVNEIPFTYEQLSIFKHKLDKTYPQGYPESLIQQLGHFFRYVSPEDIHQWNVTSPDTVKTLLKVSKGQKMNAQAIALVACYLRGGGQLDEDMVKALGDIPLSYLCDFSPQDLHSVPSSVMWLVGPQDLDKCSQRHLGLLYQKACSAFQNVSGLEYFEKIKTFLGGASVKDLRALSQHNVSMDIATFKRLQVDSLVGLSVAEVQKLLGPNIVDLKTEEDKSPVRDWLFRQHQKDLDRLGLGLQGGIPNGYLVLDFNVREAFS

B1: MF-A IgG (antibody, V domains shown)
VH: QVQLVQSGAEVKKPGSSVKVSCKASGGTFSSYYFSWVRQAPGQGLEWMGGIIPKFGSANYAQKFQGRVTITADESTSTAYMELSSLRSEDTAVYYCARRTSMDYWGQGTLVTVSS
VL: DIALTQPASVSGSPGQSITISCTGTSSDVGGYNYVSWYQQHPGKAPKLMIYSVSKRPSGVSNRFSGSKSGNTASLTISGLQAEDEADYYCGAWAHMSLGKVFGGGTKLTVLG
B2: MF-J IgG (antibody, V domains shown)
VH: QVELVQSGAEVKKPGESLKISCKGSGYSFTNYWIGWVRQMPGKGLEWMGVIMPSDSYTRYSPSFQGQVTISADKSISTAYLQWSSLKASDTAMYYCARYGHGMYGGALDVWGQGTLVTVSS
VL: DIVLTQSPATLSLSPGERATLSCRASQSVRSSRLAWYQQKPGQAPRLLIYGASKRATGVPARFSGSGSGTDFTLTISSLEPEDFATYYCQQYYDFPPTFGQGTKVEIKR
B3: MOR06631 IgG (antibody, V domains shown)
VH: B2 VH with E3Q, V50F, M52W, S54V, Y57W, R59Q
VL: B2 VL
B4: MOR06669 IgG (antibody, V domains shown)
VH: B2 VH with E3Q, V50I, M52W, S54I, Y57F, R59Q
VL: B2 VL
B5: MOR07111 IgG (antibody, V domains shown)
VH: B2 VH with E3Q
VL: B2 VL with T86V, Y92F, D94S, F95K, P97I
B6: MOR06626 IgG (antibody, V domains shown)
VH: QVQLVQSGAEVKKPGASVKVSCKASGYTFTGNYINWVRQAPGQGLEWMGIINPTKGWTLYAQKFQGRVTMTRDTSISTAYMELSSLRSEDTAVYYCARWHHGTWIFDYWGQGTLVTVSS
VL: DIVLTQPPSVSGAPGQRVTISCSGSSSNIGSNYVSWYQQLPGTAPKLLIYNDNQRPSGVPDRFSGSKSGTSASLAITGLQSEDEADYYCSTYDRRTFSVFGGGTKLTVLG
B7: MOR06638 IgG (antibody, V domains shown)
VH: B6 VH with T54H, K55G, W57D, L59K
VL: DIVLTQPPSVSGAPGQRVTISCSGSSSNIGSNYVSWYQQLPGTAPKLLIYNDNQRPSGVPDRFSGSKSGTSASLAITGLQSEDEADYYCSSWDRADGSYVFGGGTKLTVLG
B8: MOR06640 IgG (antibody, V domains shown)
VH: B2 VH with E3Q
VL: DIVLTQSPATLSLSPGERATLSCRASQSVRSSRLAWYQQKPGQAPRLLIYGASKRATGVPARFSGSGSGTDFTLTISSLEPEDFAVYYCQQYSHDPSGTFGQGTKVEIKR
B9: MOR06642 IgG (antibody, V domains shown)
VH: B2 VH with E3Q
VL: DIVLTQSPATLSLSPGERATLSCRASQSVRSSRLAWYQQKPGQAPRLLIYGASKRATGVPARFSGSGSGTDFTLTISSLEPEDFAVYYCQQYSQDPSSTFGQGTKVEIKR
B10: MOR07265 IgG (antibody, V domains shown)
VH: B2 VH with E3Q, V50F, M52W, S54V, Y57W, R59Q
VL: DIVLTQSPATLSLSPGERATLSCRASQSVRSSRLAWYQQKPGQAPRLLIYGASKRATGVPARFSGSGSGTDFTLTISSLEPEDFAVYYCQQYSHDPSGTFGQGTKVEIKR
B11: MOR06657 IgG (antibody, V domains shown)
VH: B1 VH
VL: B1 VL with G91A, A92T, A94D, M96S, S97Q, L98M
B12: MOR06643 IgG (antibody, V domains shown)
VH: QVQLVESGGGLVQPGGSLRLSCAASGFTFSDYAMSWVRQAPGKGLEWVSAIMYDSSSTFYADSVKGRFTISRDNSKNTLYLQMNSLRAEDTAVYYCARINYIYKGVHFDYWGQGTLVTVSS
VL: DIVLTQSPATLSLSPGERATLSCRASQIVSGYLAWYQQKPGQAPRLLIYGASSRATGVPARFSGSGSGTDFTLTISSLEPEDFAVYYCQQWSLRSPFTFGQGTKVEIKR
B13: MF-A Fab (Fab, V domains shown)
VH: B1 VH
VL: B1 VL
notes: Purified Fab
B14: MOR06657 Fab (Fab, V domains shown)
VH: B1 VH
VL: B1 VL with G91A, A92T, A94D, M96S, S97Q, L98M
notes: Purified Fab
B15: MF-J Fab (Fab, V domains shown)
VH: B2 VH
VL: B2 VL
notes: Purified Fab
B16: MOR06631 Fab (Fab, V domains shown)
VH: B2 VH with E3Q, V50F, M52W, S54V, Y57W, R59Q
VL: B2 VL
notes: Purified Fab
B17: MOR06669 Fab (Fab, V domains shown)
VH: B2 VH with E3Q, V50I, M52W, S54I, Y57F, R59Q
VL: B2 VL
notes: Purified Fab
B18: MOR06643 Fab (Fab, V domains shown)
VH: B12 VH
VL: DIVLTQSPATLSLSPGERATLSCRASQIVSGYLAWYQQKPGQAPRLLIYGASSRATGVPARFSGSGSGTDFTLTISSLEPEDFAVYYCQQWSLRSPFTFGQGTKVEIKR
notes: Purified Fab
B19: MF-226 Fab (Fab, V domains shown)
VH: B6 VH with Q3E, T54H, K55G, W57D, L59K
VL: B6 VL
notes: Purified Fab
B20: MOR06626 Fab (Fab, V domains shown)
VH: B6 VH
VL: B6 VL
notes: Purified Fab
B21: MOR06638 Fab (Fab, V domains shown)
VH: B6 VH with T54H, K55G, W57D, L59K
VL: B7 VL
notes: Purified Fab

Target: T2, mesothelin on CHO-A9 cells (CHO-K1 stably transfected with the GPI-anchored C-terminal part of mesothelin) (Homo sapiens (Human), UniProt Q13421 287-598, GPI anchor)
T2 construct: In the immunoblots the protein stood in a denatured cell extract; also called mesothelin-expressing CHO-A9 cells
T2 sequence (Q13421 other isoform, or with tags, fused parts or gaps limits assumed): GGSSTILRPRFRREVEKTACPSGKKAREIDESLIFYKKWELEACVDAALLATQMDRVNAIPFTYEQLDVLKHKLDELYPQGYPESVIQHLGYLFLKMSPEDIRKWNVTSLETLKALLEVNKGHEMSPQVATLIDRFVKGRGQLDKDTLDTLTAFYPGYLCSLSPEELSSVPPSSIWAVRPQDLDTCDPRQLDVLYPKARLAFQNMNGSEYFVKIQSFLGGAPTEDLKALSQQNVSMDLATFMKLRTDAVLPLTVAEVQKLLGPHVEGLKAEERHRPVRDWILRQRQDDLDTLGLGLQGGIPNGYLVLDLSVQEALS
Assay: live cell ELISA, IgG1 on CHO-A9 cells

Question: B1 was tested. Which EC50 did it give?
Answer: Its EC50 is 0.8 nM.

Question: Which EC50 does the source give for B2 here?
Answer: Its EC50 is 3.9 nM.

Target: T3, mesothelin on NCI-H226 cells (UniProt Q13421 296-598)
T3 construct: whole, on cells; In the immunoblots the protein stood in a denatured cell extract
T3 sequence (Q13421 other isoform, or with tags, fused parts or gaps limits assumed): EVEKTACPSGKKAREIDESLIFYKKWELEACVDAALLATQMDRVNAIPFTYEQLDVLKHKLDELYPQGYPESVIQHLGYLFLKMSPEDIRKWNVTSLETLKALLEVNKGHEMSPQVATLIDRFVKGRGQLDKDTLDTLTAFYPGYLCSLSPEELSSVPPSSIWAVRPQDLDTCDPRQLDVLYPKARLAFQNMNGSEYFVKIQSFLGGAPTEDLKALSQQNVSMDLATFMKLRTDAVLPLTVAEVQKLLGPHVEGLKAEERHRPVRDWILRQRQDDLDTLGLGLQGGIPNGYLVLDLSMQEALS
Assay: FACS titration, IgG on NCI-H226 cells
Protocol: FACS titration was performed in a 96 well microtiter plate, in which serial dilutions of the primary antibody in a volume of 80 μl of FACS buffer (3% FCS, 0.02% NaN₃ in PBS) were mixed with 20 μl of a cell suspension consisting of 10⁶ cells/ml which had been detached with accutase or trypsin/EDTA, and resuspended in FACS buffer. Incubation was performed at 4° C. for 1 hour with agitation. Cells were washed twice with FACS buffer and resuspended in 100 μl/well of anti-human PE conjugate solution in FACS buffer. Incubation and washing was performed as before. Analysis of cell-bound antibodies was done using the FACS Array device. EC₅₀ values were determined from fluorescence medians of duplicates using Prism 4.0 software (GraphPad) applying non-linear regression fit.

Question: For B3, which EC50 is on record?
Answer: Its EC50 is 2.02 nM.

Question: B4 was tested. Which EC50 did it give?
Answer: The EC50 was 0.41 nM.

Question: Which EC50 does the source give for B5 here?
Answer: The EC50 was 0.8 nM.

Question: B6 was tested. Which EC50 did it give?
Answer: Its EC50 is 0.44 nM.

Question: With B7 as the binder, how does the EC50 read?
Answer: The EC50 was 0.19 nM.

Question: Which EC50 does the source give for B8 here?
Answer: Its EC50 is 0.63 nM.

Question: For B9, which EC50 is on record?
Answer: The EC50 was 0.58 nM.

Question: Which EC50 does the source give for B10 here?
Answer: Its EC50 is 1.11 nM.

Question: How did the EC50 turn out when B11 was run?
Answer: The EC50 was 0.14 nM.

Question: How did the EC50 turn out when B12 was run?
Answer: The EC50 was 0.23 nM.

Target: T2, mesothelin on CHO-A9 cells (CHO-K1 …)
Assay: FACS with Scatchard analysis, IgG1 on CHO-A9 cells

Question: For B1, which EC50 is on record?
Answer: Its EC50 is 0.05 nM.

Question: Which EC50 does the source give for B2 here?
Answer: Its EC50 is 0.11 nM.

Target: T4, human mesothelin (recombinant, soluble, purified; 40 kDa C-terminal polypeptide of the mesothelin precursor) (human, UniProt Q13421 296-598, limits assumed)
T4 construct: also called soluble mesothelin
Assay: SPR (Biacore), Fab on directly immobilized mesothelin

Question: How did the Kd turn out when B13 was run?
Answer: The Kd was 19 nM.

Question: What about the koff of the same binder?
Answer: Its koff is 0.079 s⁻¹.

Question: With B14 as the binder, how does the Kd read?
Answer: Its Kd is 0.95 nM.

Question: What about the koff of the same binder?
Answer: The koff was 0.0055 s⁻¹.

Question: B15 was tested. Which Kd did it give?
Answer: The Kd was 9.2 nM.

Question: What about the koff of the same binder?
Answer: The koff was 0.0029 s⁻¹.

Question: What does the source list for B16?
Answer: Kd: 0.09 nM; koff: 1.4e-05 s⁻¹

Question: What does the source list for B17?
Answer: Kd: 0.24 nM; koff: 8.1e-05 s⁻¹

Question: How did the Kd turn out when B18 was run?
Answer: The Kd was 0.36 nM.

Question: And the koff?
Answer: Its koff is 0.00028 s⁻¹.

Question: With B19 as the binder, how does the Kd read?
Answer: Its Kd is 58 nM.

Question: What about the koff of the same binder?
Answer: The koff was 0.038 s⁻¹.

Question: What does the source list for B20?
Answer: Kd: 0.67 nM; koff: 0.0012 s⁻¹

Question: With B21 as the binder, how does the Kd read?
Answer: The Kd was 16 nM.

Question: And the koff?
Answer: The koff was 0.0063 s⁻¹.

Target: T4, human mesothelin (recombinant, soluble, …)
Assay: SPR (Biacore 3000), Fab on covalently immobilized human mesothelin

Question: B13 was tested. Which Kd did it give?
Answer: The Kd was 19 nM.

Question: And the koff?
Answer: The koff was 0.079 s⁻¹.

Question: Which results are given for B14?
Answer: Kd: 0.95 nM; koff: 0.0055 s⁻¹

Question: Which Kd does the source give for B19 here?
Answer: The Kd was 58 nM.

Question: And the koff?
Answer: The koff was 0.038 s⁻¹.

Question: With B20 as the binder, how does the Kd read?
Answer: Its Kd is 0.67 nM.

Question: And the koff?
Answer: Its koff is 0.0012 s⁻¹.

Question: Which Kd does the source give for B21 here?
Answer: The Kd was 16 nM.

Question: What about the koff of the same binder?
Answer: Its koff is 0.0063 s⁻¹.

Target: T1, murine mesothelin (recombinant)
Assay: SPR (Biacore 3000), Fab on covalently immobilized murine mesothelin
Protocol: Shown in Table 5 are results of Biacore and ELISA studies showing cross-reactivity of antibodies of the invention to murine mesothelin. The kinetic constants kₒₙ and koff were determined with serial dilutions of the respective purified Fab fragment binding to covalently immobilized human or murine mesothelin using the Biacore 3000 instrument (Biacore, Uppsala, Sweden). Covalent antigen immobilization was achieved by a standard EDC-NHS coupling procedure. Kinetic measurements were done in PBS, pH 7.2 at a flow rate of […] using Fab concentration ranging from 1.5-500 nM. Injection time for each concentration was 1 min, followed by 3 min dissociation phase. For regeneration 5 μl 10 mM glycine buffer, pH 1.8 was used. All sensograms were fitted using the BIA evaluation software 3.1 (Biacore).

Question: What does the source list for B13?
Answer: Kd: 670 nM; koff: 0.27 s⁻¹

Question: How did the Kd turn out when B14 was run?
Answer: Its Kd is 360 nM.

Question: And the koff?
Answer: Its koff is 0.16 s⁻¹.

Question: Which results are given for B19?
Answer: Kd: 1280 nM; koff: 0.14 s⁻¹

Question: B20 was tested. Which Kd did it give?
Answer: The Kd was 6.7 nM.

Question: And the koff?
Answer: The koff was 0.0098 s⁻¹.

Question: With B21 as the binder, how does the Kd read?
Answer: The Kd was 320 nM.

Question: And the koff?
Answer: The koff was 0.04 s⁻¹.
